In the domain aggregation screens of Martell et al. (2025):

Test: soluble fraction after stress (log2 fold change); higher = more stays soluble; pooled small domains, quantitative proteomics
Conditions: stress: 50 degC
In short: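 Each library was heated to 50°C as a stress step. The libraries, made up of small protein domains, were pooled and analysed at high throughput by quantitative proteomics. The reported value is the base-two logarithm of the fold change in each protein's soluble amount after stress, taken as a measure of aggregation propensity. The higher the value, the more protein stays in solution.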

Sequence	soluble fraction (log2)
HMELRIREILESKDIKVSSLAETVGITRANMSNIVNGKSTPSLETLEKIANALGVDITELFA	0.116
HMNADTVIGKAGTVIEKIDNVAATGAVKIDGKVWTARSERDNITIDEGTLVKAMAIEGVKLIVEPVT	0.198
HMEYSKSIKRLREDKNLTVEELAKRLSLDVEEIQKAEDGEDVDQKTLEAIARYFGVQYDSLVEGTAKSK	0.0998
HMGTGIKQVNVVSVIGQDEETAKTTLTNLGLKVNVTYATSTSDNGKVTKQSIDAGKTVDEGTSVTITVNKV	0.241
HMDHWQSVNSALELLEVSRRTLYDYISRKKLQTKKEGKYRYVWIDDDVIEEIKTSKSAYIEINN	-2.19
HMEPPAPAPDIPYPSRVTVRREVDGWPHYYGTWTRTPPVLGYEGIWLVGVSLDGKVQFVPVDDVTIA	-0.627
HMEANAYFDAYPDVAAEWARLSGSDEGKATLSAIGVTTPQQFAQYHYTTFGSKENRNAPVGYTP	0.0756
HMTRAETPMAFIRAMVEAYTERGLDPNQALRKAQITPSQLKSTNARVTTLQMEWMSETAMREL	0.0088
HMGALTGQERRAEIMNILRQSTMPLSGAALGKQLGVSRQVVVQDIALLRQSGEEIYATNRGYVTG	-0.129
HMNGKPDMTPIPAGSRNNDLHAWAYGRLLNHPDNAEAIRRDLFERGQTSGLKESELETIWQSIRRQLGGD	0.249
HMAPQQARAAKTRVKLLDAAATVVRRDGIQAMTLARVAEEAGVSKGGLLHHFGSKEELVTGMLEQ	-0.152
HMEPDEESVRLKEEILSRIDYWHTTMPYMGTRKLAAKLRTEGYAVGRKLVRTYMREMGIHAVYP	-0.132
HMSIYYQIYESLKKDLSNNLYKPGEKLPSENVLSKRFGVNRHTIRRSLQLLKNEGILFSKRGSGIIVHD	-2.32
HMNEKTGTLTVYSSPGWAKVYIDGEYKGITPVMANLTYGDHYVKLTLDGYDSIGNHIDVNSPDQSYTGKF	-0.494
HMEFEIGQEDSKKSVKQFLYNTLRLSHGQVTALKRQERGILLNGERVFVTALLQEGDRLSLLLE	-0.342
HMIKVAANESNRSDVLEIVRLFRVRVVDVNPESLTIEATGAEGKIDALLGLLEHYGVIELVRSGAVAVT	-0.435
HMQGEVVTNRSVIDMSRAGLSADIIRAKILRSDTNFDVTAKALIELKESGVPDDIIALMLERADS	0.128
HMTMKVTADILNMRSEASTNSDIVTKLKKDDELKVIEETKDDDGVTWVKVDFNGQVGFVSKEFLG	0.284
HMDMNVQNYRGLSLDRAKKLISDLGLKYEVVGTGDSVVKQVPSSGSRMSKENGRIILYTENVEDA	0.00608
HMDQINNDLRKLIEFLPEDQKTVLKMRHFQEMSFKEIAKATGVSINTALGRMRYALINLRKLIEENEI	-1.41
HMKSLAQELVDALGDRIRDGRLKVGDKLPSEAAIEAQYGVSRTVVREAISRLQAAGLVVTRHGIGTFIVGI	-0.804
HMSSVRDNGDLELVPGDRIRHDDYGEGRVTAVTGVGSKRIAHAVFDSVGERKLLIKLSPIEKI	-0.0293
HMILESREKYLGEVLEVLVEEEKEGEYFGYSQNYLRVKFKLEEKNLINQLINIKIKSIEDDILIGEKEN	-1.46
HMDRRDEYHQHLLRLLLSGEIRDKDELQRRKVKLSGEYGLAGVPKNSETLALVPPDRLPEVLDILR	0.065
HMPYIVNHIHLKSEDPKITADWFVKAFNFEIVSDVVRHFGDRFIVTKAEGGMTINISGVRDGEEL	-0.0655
HMKRSVIVTAERAEVRQKADEGSALVFEAEKNVSLEYLEAAPGGWVKVRHLDGQSGFVRGNQI	-0.37

Sequence	soluble fraction (log2)
HMVQVRQPAGAGDLFAKGRLHLSTGTIHTVKPLEVDLPKGRLTVVTGVSGSGKTTLILESLLPALAAAAA	0.482
HMNPETLTNSSVIKMSKANLSDELITDMILNSPVKFDLSAGAIKTLESEGVTPAVLESMKNAASK	0.154
HMASLASVAYETLRQALDNFQYVPGDRFSESEVGQQLGMSRTPVREALVRLQREGYISVLPKMGWVVNQ	-1.64
HMSFVDFYGLFTTELQRLAELPVTADELIKNTGLHKSQLTDWLKRAEEDGVVKKLNRPVRYQVEKK	-0.987
HMFMPGTIIKQFRELRNYSQDYVSRKMGISQNAYSKIENNITQLTVTHVKQLSSILDVPIVELLR	-3.32
HMPADHYEVLGIARDADAAEVKRAYRRLARESHPDANHGDSGAEVRFKAVSAAYEVLSDPERRARYDRFGH	-0.00211
HMSFGESLKKLSIALNSIRKLATTDAGKKDPKVADLLGQIRDTFNSYRTHLRKNYPDLYSGIKNQL	-0.62
HMAMTQNVDLAGRIVFNEKKEEVFNFGKHKGRSVAEVFEKEPSYYDWMLKGDFPAETKQVLTALRLRGLS	-0.0725
HMAQLPPTATARATSDVSGLTASAALRTLLEQGFVPQIHGSGKVSRQHPPAGTLLEPGSTIQLFLEPS	0.354
HMSKYGIAYSEVLEILKHIPIEDYNKIPRNEIELFETYADKDFTFNYDSSKTLEEQNVSNITKGIIIL	-0.103
HMGQELRFVIQDHEAGIRLDHYLTQQVEGYSRSHLRKLMDQGLITVDGSYRKAGYRLNVGDVIHVVIPPTR	-0.443
HMNALNDLESKIFEEVVKAPEIIMNMTIREFASTVHASPTTIVRMTHKLGFSGWNELKTYLQKQKHQIS	-1.02
HMTANPSTEEIMARVEAIPLPIKRLPPGQIVQAQTVAATVLRSNPGLDLAKAWKLAYATVTGQE	-0.0416
HMGKTEMPFSTFLTEVDKGNIVSVDIRGSEISGNFRDGKGFKTYSPNYPNLVEKLSAKGVAITAGPR	0.187
HMEKVLPFEFERKFKTNHTAWDFFSNQAPPSYRKTVIHWILSAKQEITRISRLEKLIAASEQQKRI	-0.319
HMDIMTVGERVKKLAEKQGISLRELAKKAELSYNTVYSITRRGSERVAPDTISRLANALGVNVNELT	0.0708
HMKVELSENEKIIYDLLSNQEVLLSEIKDKAELSNKAWDKSTKSLRKLGLVIVEKKDDNIYISKS	-0.362
HMVNTYILNNKEYPIEIIRKNNKNTYLRVKEGKIIVTTNYLTSSFTINKLIKDNTSFINKALLKEN	-0.595
HMKQNVEAVIKERAIEKARAQVKAVSTHMALEAQSLSKEQLEFEIERIAAQIIDKMPSDFWND	-0.386
HMSVAVKAPLQGTVMKVNVKPGDTVTKGAPVAVIEALKMENDVPAPQDGVVASVDVKSGDSVKTDQVLLTL	0.182
HMLLQTRQRHEALAALGYFKGDVAAAWGPASEEALRAAQAAFGITVDGKWGPQTEDAIQGALQV	-0.213
HMRDYKTALQEWVQRTPGQPIAYRLVDELGPDHARVFVMEVTVGGQSAGQGRGRTKKEAEQLAARAALEKL	-0.0907
HMDDVVVLPFTAEFARMSSDDFVREILVGKIGMKRFVVGYNHRFGSGQQGDFASLQRMQGELGFVAVRVG	0.0571
HMGKSDDSLAAEKFIQHVRKNGELSYEQAYRMVHAYFPDFRNFEGMVSGAVKSGYLILIQKSTGLFLRAKE	-0.882
HMTFGENLIRLRRQQGLSQEQLGMRIGVSRQTVSKWELNDTTPEMEKLIALADLFGLSLDELTGRV	-0.115
HMNQTEKSKITHNELLKAAHSLFIEQGFNHTTITDIVTRAGYSTGIFYKHYKTKTDILVELWTNYIE	-2.31

Sequence	soluble fraction (log2)
HMGQVSDETGLARVVDALLAAHPDEVAKYRAGKTSLLGWFMGQVMKETRGQANPDLARALVLERLE	-0.101
HMSKPVFQTHSVRSADSATVFDVLQTLLAGTPDARIAIDPKTNAIVAWARPETQEVIAKSIMEMEG	0.0132
HMREVTVGSAVRLKKGAKTYSGGSLASFVYERNHQVTQLSGDRAVISFKGTVVAAVHKDDLIL	-0.916
HMDLSQTVQAKALARVNVREGAGTHFKSLGKLKKGELLPVFRVGNSWASIWWKGRVAYVHTDYLRFESA	-0.847
HMPDPVHAAYLRLAVLLTEQAIGPQVTEQQIRDRFALTRRQTSDLMGRLIREGIAEKRAGYGWNINTELTA	-0.845
HMGNIADARRDASYVFLIGEWAKSSNLTEKKLAGLIQSNHLDIKYGITVTDVIADIRKYKNDPTYNPF	-0.305
HMGGLAEGTKITLQNTVNVRASMGEDAEKIGTAYAGEKVTVIMSYAEGWTKVTWNDKTGYIKTSLL	-0.634
HMKPALFSADELNRLYRYGLSLTGERDRAYDLLQTALEKYLRQSQAPANAMRYVRKIMHNQFIDDYR	-1.13
HMTSVPGTVVTNANLRGGPGTNYPIVGKAPAGTTVNVVESTADRTWYYLDTGSWIAAFLVKLS	0.152
HMSKLSVSSLSSPEVQNQLKAAGIDVNSRQYQVVMKDMMGALDGRAGYTTVSAIKNRMRQYNADGDY	0.474
HMGEQYYVLIDNKQNGPHNINAIQKMIDQNIVNRQTLIWKKGMTDWGNIMDDKDLKEMVNKIP	-0.0562
HMEMPGGVMRTLSTIAYNQPVLQSKLVKVRGPRAYEDVHILRDMGLVSARSVGQTVELSTTPKFAEQF	-0.265
HMPLQYRLTVQPTPTNARVRLVNSAFTYRPGVALPPGSYIVEVSSSGYGAKRQAVQIADGDVTVPVELEKI	-0.012
HMRYLHTMIRVSDLEESLNFFKLLDIHEVSRKENEQARFTLVFLSATGDEKLVENAKSPLIELTFN	-0.0584
HMSNEEEIEGLVSKVLDNNPEIVERIRSGEDKLISYLVGEVMKQSSSSLNPGIVKEIIVNKTI	0.161
HMAPPPPEGYIHRWIRESVMGFDDKKNLSARIREGFELVRAEEYPDYEAPTVMDGKHAGVIANGGLLLARF	-0.148
HMQTKMVYSDLVNSIKSEQVSSMLVSGNTVTVTLTNGDKAKVKIPSLDTLQADVGKEMNDQMDKGTLKQE	0.181
HMVSDTGAIEAIVAQVLADNPKLVEGYLATPEDKRGKAIGPFIGLTRKAAAGVNPQVVMDVLKKKLSEL	-0.0515
HMADGTSIYAEREVLYVTSPTANTAKVYNVSGALVRTMTLSAGQTVRTALPAGFYVVALGNGNTHKVIV	-0.889
HMQDYYTQSDFARYLEDKGIHFPQNKIAVYRKRGKFPKEDLVVAGTPYWSKYTVESFAKHLLEQQN	0.0719
HMLSEKELLELLNRAKSNYNGITKKGIEAIALKYQGYSNVEIANLYHVKANHISAWISRARSRLKADY	0.193
HMKYNYEAQQSDELSLVKGSRIHVLEKSSDGWWKGEIDNVVGWFPS	-0.205
HMTKRKNTEFRQQQIIEAAAKLIFKYGSEHLTVKRIAAQVGISEAAIYRHFTSKKSILSFLLSHIEE	-0.423
HMSYTWHDMYLLAQEYQKEHGNLIIPRNYKGKNGLNLGYWLYKEKLKYRQGKLAPEKIIALEHIGIVWT	-1.21
